Measurements as given in article PMC8881611, “A mechanism of origin licensing control through autoinhibition of S. cerevisiae ORC·DNA·Cdc6” (Nature Communications, 2022).

Tests used:
[1] = target: T1, ScORC·DNA·Cdc6 with MBP-tagged ORC (full-length Orc6), ORC dephosphorylated with λ phosphatase (S. cerevisiae, UniProt P54784 1-914; P32833 1-620; P54790 1-616; P54791 1-529; P50874 1-479; P38826 …, ORC treated with λ phosphatase | ORC treated with λ phosphatase); experiment: pull-down; amylose pulldown, ORC with MBP-tagged Orc4 as bait; 0.5 uM ScORC, 0.5 uM 84 bp ARS1 dsDNA, 1 uM ScCdc6, 10 uM ScMcm7 (titrations 1.5, 5, 10 uM), 2 mM ATPγS; 25 mM HEPES pH 7.5, 300 mM potassium acetate, 10 mM magnesium acetate, 1 mM DTT; on ice; maltose elution, Coomassie-stained SDS-PAGE; settings: both partners purified
T1 construct: Orc1, S. cerevisiae, wild type; Orc2, S. cerevisiae, wild type; Orc3, S. cerevisiae, wild type; Orc4, S. cerevisiae, wild type; Orc5, S. cerevisiae, wild type; Orc6, S. cerevisiae, wild type; Cdc6, S. cerevisiae, wild type; ORC (10 uM) dephosphorylated with 16.7 units/uL λ phosphatase, 10 min, 30 °C, before assembly with DNA, Cdc6 and ATPγS; also called dephosphorylated MBP-ORC·DNA·Cdc6; source: …

[2] = target: T2, ScORC·DNA·Cdc6 with MBP-tagged ORC holding Orc6 ΔCBN/Δlinker (Orc6Δ1-269), ORC untreated (S. cerevisiae, UniProt P54784 1-914; P32833 1-620; P54790 1-616; P54791 1-529; P50874 1-479; P38826 …); experiment: as above; settings: both partners purified
T2 construct: Orc1, S. cerevisiae, wild type; Orc2, S. cerevisiae, wild type; Orc3, S. cerevisiae, wild type; Orc4, S. cerevisiae, wild type; Orc5, S. cerevisiae, wild type; Orc6, S. cerevisiae, truncation Orc6Δ1-269 (lacks the N-terminal cyclin box fold and the flexible linker); Cdc6, S. cerevisiae, wild type; also called Orc6^ΔN269; source: MBP-ORC: High5 insect cells, purified (no TEV cleavage); Cdc6: …

B1: S. cerevisiae Mcm7 (ScMcm7) (natural protein, UniProt P38132 1-845, looked up)
chain: MSAALPSIQLPVDYNNLFNEITDFLVTFKQDTLSSDATRNENEDENLDAENIEQHLLEKGPKYMAMLQKVANRELNSVIIDLDDILQYQNEKFLQGTQADDLVSAIQQNANHFTELFCRAIDNNMPLPTKEIDYKDDVLDVILNQRRLRNERMLSDRTNEIRSENLMDTTMDPPSSMNDALREVVEDETELFPPNLTRRYFLYFKPLSQNCARRYRKKAISSKPLSVRQIKGDFLGQLITVRGIITRVSDVKPAVEVIAYTCDQCGYEVFQEVNSRTFTPLSECTSEECSQNQTKGQLFMSTRASKFSAFQECKIQELSQQVPVGHIPRSLNIHVNGTLVRSLSPGDIVDVTGIFLPAPYTGFKALKAGLLTETYLEAQFVRQHKKKFASFSLTSDVEERVMELITSGDVYNRLAKSIAPEIYGNLDVKKALLLLLVGGVDKRVGDGMKIRGDINVCLMGDPGVAKSQLLKAICKISPRGVYTTGKGSSGVGLTAAVMKDPVTDEMILEGGALVLADNGICCIDEFDKMDESDRTAIHEVMEQQTISISKAGINTTLNARTSILAAANPLYGRYNPRLSPLDNINLPAALLSRFDILFLMLDIPSRDDDEKLAEHVTYVHMHNKQPDLDFTPVEPSKMREYIAYAKTKRPVMSEAVNDYVVQAYIRLRQDSKREMDSKFSFGQATPRTLLGIIRLSQALAKLRLADMVDIDDVEEALRLVRVSKESLYQETNKSKEDESPTTKIFTIIKKMLQETGKNTLSYENIVKTVRLRGFTMLQLSNCIQEYSYLNVWHLINEGNTLKFVDDGTMDTDQEDSLVSTPKLAPQTTASANVSAQDSDIDLQDA
notes: Mcm7, S. cerevisiae; migrates as a doublet on SDS-PAGE; source: E. coli BL21 RIL, purified (HisTrap, amylose, TEV cleavage, HisTrap, gel filtration); not shown: His6, N-terminal, cleaved; MBP, N-terminal, cleaved
binding result [1]: binds
binding result [2]: binds
